Reference: patent US10925971B2, “Methods of treating PRLR positive breast cancer” (Regeneron Pharmaceuticals, Inc., priority 2016, dated 2021)

Tests used:
MCF7/PRLR tumors = assay: MCF7/PRLR breast cancer xenograft, tumor size and tumor growth inhibition; assay type: in vivo, NCr nude mice; details: for Average Tumor Growth Inhibition (%) / Final Tumor size mm^3 (mean ± SEM): NCr Nude mice
Summary of the method: (§1)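 MCF7/PRLR cells in mammary fat pad of female NCr nude mice, PC3/PRLR in flank of male SCID, T47D #11 in flank of female CB17 SCID, all with estrogen pellets.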

PC3/PRLR tumors = assay: PC3/PRLR xenograft, tumor size and tumor growth inhibition; assay type: in vivo, SCID mice; details: for Final Tumor size mm^3 (mean ± SEM) / Average Tumor Growth Inhibition (%): SCID mice
Summary of the method: as §1

[1] = MCF7/PRLR tumors TRIAL #1, multi-dose 5 mg/kg, Day 52
[2] = MCF7/PRLR tumors TRIAL #1, multi-dose 15 mg/kg, Day 52
[3] = MCF7/PRLR tumors TRIAL #2, multi-dose 5 mg/kg, Day 63
[4] = MCF7/PRLR tumors TRIAL #2, multi-dose 15 mg/kg, Day 63
[5] = PC3/PRLR tumors TRIAL #1, multi-dose 15 mg/kg, Day 63
[6] = PC3/PRLR tumors TRIAL #2, multi-dose 5 mg/kg, Day 55
[7] = PC3/PRLR tumors TRIAL #2, multi-dose 15 mg/kg, Day 55

B1: H1H6958N2-DM1: anti-PRLR antibody H1H6958N2 conjugated to the maytansinoid DM1 through an SMCC linker (conjugate)
VH: QVQLVESGGGVVQPGRSLRLSCGASGFTFRNYGMQWVRQGPGKGLEWVTLISFDGNDKYYADSVKGRFTISRDNSKNTLFLQMNSLRTEDTAVYYCARGGDFDYWGQGTLVTVSS
VL: DIQMTQSPSSLSASVGDRVTITCRASQDIRKDLGWYQQKPGKAPKRLIYAASSLHSGVPSRFSGSGSGTEFTLTISSLQPEDFATYYCLQHNSYPMYTFGQGTKLEIK
Average Tumor Growth Inhibition (%) (MCF7/PRLR tumors; [1]): 128%
Final Tumor size mm^3 (mean ± SEM) (MCF7/PRLR tumors; [1]): 51 ± 33 mm^3
Average Tumor Growth Inhibition (%) (MCF7/PRLR tumors; [2]): 133%
Final Tumor size mm^3 (mean ± SEM) (MCF7/PRLR tumors; [2]): 0 ± 0 mm^3
Average Tumor Growth Inhibition (%) (MCF7/PRLR tumors; [3]): 116%
Final Tumor size mm^3 (mean ± SEM) (MCF7/PRLR tumors; [3]): 117 ± 10 mm^3
Average Tumor Growth Inhibition (%) (MCF7/PRLR tumors; [4]): 137%
Final Tumor size mm^3 (mean ± SEM) (MCF7/PRLR tumors; [4]): 0 ± 0 mm^3
MCF7/PRLR tumor growth (MCF7/PRLR tumors; first multi-dose trial, 5 and 15 mg/kg): potently inhibited MCF7/PRLR tumor growth
tumor volume relative to vehicle control tumors (MCF7/PRLR tumors; single dose 1 mg/kg): significant decrease in tumor volume
Final Tumor size mm^3 (mean ± SEM) (PC3/PRLR tumors; PC3/PRLR tumors TRIAL #1, multi-dose 5 mg/kg, Day 63): 1247 ± 171 mm^3
Average Tumor Growth Inhibition (%) (PC3/PRLR tumors; [5]): 46%
Final Tumor size mm^3 (mean ± SEM) (PC3/PRLR tumors; [5]): 808 ± 83 mm^3
Average Tumor Growth Inhibition (%) (PC3/PRLR tumors; [6]): 61%
Final Tumor size mm^3 (mean ± SEM) (PC3/PRLR tumors; [6]): 566 ± 63 mm^3
Average Tumor Growth Inhibition (%) (PC3/PRLR tumors; [7]): 94%
Final Tumor size mm^3 (mean ± SEM) (PC3/PRLR tumors; [7]): 230 ± 22 mm^3
PC3/PRLR tumor growth (PC3/PRLR tumors; multi-dose, especially at 15 mg/kg): demonstrated inhibition of tumor growth
